Measured values reported in patent US7282556B2, “Polynucleotides and polypeptides relating to the modulation of SIRPα-CD47” (Emory University, priority 2001, dated 2007).

Biological target: T1, CD47-SIRPα1 binding (CD47-AP / SIRPα1-GST) (Homo sapiens, UniProt P78324)
T1 construct: Microtiter plates were coated with SIRPα1 extracellular domain fusion protein (SIRPα1-GST, 1 μg/ml) for 2 hr; A construct consisting of the extracellular domain of human CD47 fused to the catalytic domain of human placental AP; made in house
T1 sequence (P78324 31-373 limits assumed): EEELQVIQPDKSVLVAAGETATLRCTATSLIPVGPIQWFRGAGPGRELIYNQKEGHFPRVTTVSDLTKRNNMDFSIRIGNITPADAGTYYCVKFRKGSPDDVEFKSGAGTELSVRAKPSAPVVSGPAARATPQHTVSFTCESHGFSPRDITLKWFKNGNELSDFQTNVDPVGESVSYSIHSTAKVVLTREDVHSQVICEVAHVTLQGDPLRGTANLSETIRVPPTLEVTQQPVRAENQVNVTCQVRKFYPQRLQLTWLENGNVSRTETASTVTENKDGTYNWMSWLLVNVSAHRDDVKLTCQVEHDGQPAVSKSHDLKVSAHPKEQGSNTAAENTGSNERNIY
Test: CD47-AP binding to immobilized SIRPα1-GST (alkaline phosphatase activity)
Details: SIRPα-GST coated 2 μg/ml, CD47-AP 1-2 μg/ml
Procedure: FIG. 2C (right panel) is a bar graph that illustrates CD47-AP specifically binds to SIRPα-GST fusion protein but not SIRPβ-GST. In this panel, microtiter plates were coated with either SIRPα-GST or highly similar SIRPβ-GST (10 μg/ml) followed by blocking with BSA. To each well was then added recombinant CD47-AP followed by washing. Bound CD47-AP was then detected by assay for alkaline phosphatase after addition of appropriate substrate.
FIGS. 6A-6C are graphs that illustrate the effects of synthetic peptides on CD47-SIRPα binding. FIG. 6A illustrates the effect of peptide C5/D5.1 on CD47-SIRPα binding. […] After blocking, CD47-AP was added in the absence or presence of synthetic peptides C5/D5.1 and control peptides C5/D5.4, C5/D5.11 and C5/D5.12 (used as 1 mM each). “*” p<0.01. CD47-AP binding was then detected by assay of alkaline phosphatase activity and normalized with respect to binding in the absence of any peptide (CD47-AP only). FIG. 6B illustrates the effect of dose-dependent inhibition of CD47-SIRPα1 binding by peptide C5/D5.1 performed as in FIG. 6A but with increasing concentrations of peptide as indicated. […] Binding of these proteins were detected by a goat anti-GST antibody followed by peroxidase conjugated anti-goat secondary (for detecting SIRPα1-GST) or directly developed for alkaline phosphatase activity (for detecting CD47-AP). […]

binding of AP fusion protein to SIRPα-GST (AP activity, OD405): absence of binding
B1: JAM-AP: control AP fusion protein containing the extracellular domain of junction adhesion molecule (protein)
chain: SVTVHSSEPEVRIPENNPVKLSCAYSGFSSPRVEWKFDQGDTTRLVCYNNKITASYEDRVTFLPTGITFKSVTREDTGTYTCMVSEEGGNSYGEVKVKLIVLVPPSKPTVNIPSSATIGNRAVLTCSEQDGSPPSEYTWFKDGIVMPTNPKSTRAFSNSSYVLNPTTGELVFDPLSASDTGEYSCEARNGYGTPMTSNAVRMEAVERNVGV
modifications: left off: large carriers
notes: control AP fusion protein containing the extracellular domain of junction adhesion molecule
